# Data reported in patent publication CN117700537A.
# Biological target: 非洲马瘟病毒VP7重组蛋白 (AHSV VP7重组蛋白, 原核表达) (African horse sickness virus (非洲马瘟病毒))
# Assay: indirect ELISA, negative control on coated VP7 recombinant protein (0.5 μg/mL)
substance,measurement,value
"阴性对照 (阴性抗体, 表2) (antibody)",OD450,0.0655 OD450
